# Experimental data: the supplement of paper PMC9170038
# Test system: K4 kissing-loop RNA reporter
# Experiment: apparent KD of K4 kissing-loop reporter; higher = weaker reporter binding
# Conditions: Eterna round: R107
# Protocol: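 RNA-MaP round R107: designed RNA switches with theophylline, tryptophan, arginine or FMN aptamers are transcribed on-chip within common flanks. They are titrated with a labelled K4 kissing-loop RNA reporter in RNA-MaP buffer (100 mM Tris pH 7.5, 80 mM KCl, 4 mM MgCl2), without ligand or with the indicated ligand. Median apparent KD per design.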
# [1] = input ligand: theophylline 20 uM
# [2] = input ligand: tryptophan 2.4 mM
# 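Also: bound reporter read as fluorescence of individual clusters on recovered sequencing chips by microscopy, with normalized cluster intensities fitted with a binding model.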
Sequence,apparent KD of K4 kissing-loop reporter (input ligand: FMN 200 uM) [nM],apparent KD of K4 kissing-loop reporter (input ligand: arginine 13.2 mM) [nM],apparent KD of K4 kissing-loop reporter (input ligand: none) [nM],apparent KD of K4 kissing-loop reporter [1] [nM],apparent KD of K4 kissing-loop reporter [2] [nM]
GCCAGUGAUGUUGGCAUUUCGAGCCAUGAAGGAGCGCACGGAAGUGCAGGUAGGUCGCAUGGUACUUAGGAUAUUAUCCUAAGUA [Antearxe],180,169,224,178,144
GCCAGUGCGCGAAGGAGCGCCGUGACAGGUUACUGCCUUGGGCAGUGAUGUUGCUCAAUCUGGCAGGUAGGUCGCGUGCACUGGC,212,184,166,204,197
GCCCGGGCGAGUGAUGUUCGCCCACGUGAUACCAGUGCCAUCCAACACCCUUGGCAGCACGCGGGCAGUGAUGUUGCCCUUGUAU [Exclusion Theophylline A GF 4],115,110,122,138,111
GCCGCAAGGAUAGCAGCAAUAGGCGCUCGCUAGGAUAUCUGGAAACAGAGAAGGAGCUGGAGUGAUGUUUUACCUCCUAAAAUUA,517,1900,682,210,1070
GCCGUACGCAUGGAUACCAGAGAUGUUAAUCUCGAUGCCAGUGAUGUUGGCUUUAGCUAUCUCCCUUGGCAGCCAUGCGUACGGC,1050,608,909,566,1000
GCCGUACGCAUGGAUACCAGCCGACCUGAUGUUAAGCUGGUGCCGUAGUGAUGUUACGAAGGCCCUUGGCAGCCAUGCGUACGGC,211,147,209,176,196
GCCGUACGCAUGGAUACCAGUUGCGAAGUGAUGUUUCGGGCGAUCAAAGGAUCGCCAGACAACCCUUGGCAGCCAUGCGUACGGC,757,506,1600,769,674
GCCGUAGAUUGAAGGAGCGCCGCACAUGUCCCGCUUAGUGUAGUGAUGUUACAGUGUCAGCGGCAGGUAGGUCGCAAUCUACGGC,85.8,183,225,123,218
GCCGUAGAUUGAAGGAGCGCUAGUCUACGAUGACACACAGUGAUGUUGUGCGUGAUUUCAUAGCAGGUAGGUCGCAAUCUACGGC,230,195,214,186,183
GCCGUAGAUUGAAGGAGCGGACUUAUAGGUCUUAAGGAGUGAUGUUCCUGACACUCGGCGGUCCAGGUAGGUCGCAAUCUACGGC,296,269,320,252,272
GCCGUAGAUUGAAGGAGCGUGGACCUAUCGCUUGAACAGUGAUGUUGUUUAUCUAGGGAGCCGCAGGUAGGUCGCAAUCUACGGC,470,355,478,370,386
GCCGUAGAUUGAAGGAGCGUUCUUCAGCAUACUUGCAGUGAUGUUGCAUUUUACAUGUAAGAACAGGUAGGUCGCAAUCUACGGC,–,119,412,40,235
GCCUAGCAGCGAAGGAGCGCCAGGAGAAGAAAUGGAGAGAGUUGAGUGAUGUUCAAAUGGUGGCAGGUAGGUCGCGCUGCUAGGC [#08 K4 Arginine B Same State],559,261,432,444,377
GCGCAUGUUAAAGGAUAUAGCAGGUGAUACAAGAAAGUGAGUGAUGUUUAUGUAGAUGAUGAUAUGUUAGAAGGUUAACAAACGC [abcdefghijklmno],922,624,809,867,564
GCGCGUCAUGUCAGCGGUGACACUGUCGAUACCAGCGCCGAAAGGCGCCCUUGGCAGCGACGUGCUGGAGUGAUGUUCCAGCGUG [#2 Exclusion - Theophylline A Attempt #25 (HarryS)],197,160,182,203,184
GCGCGUCAUGUCAGCGGUGACACUGUCGAUACCAGUGCCGUAAGGCGCCCUUGGCAGCGACGUGCUGGAGUGAUGUUCCAGCGUU [#2 Exclusion - Theophylline A Attempt #31 (HarryS)],143,132,153,154,146
GCGGCGGGCCAAGGAUAUAUAUUGGAGUGAUGUUGUUCAUUUAUUUGAGCUAGUGAUGUUGGUCAGAUAGAAGGUGGCCCGCCGC [whbob_Ex_FMNB__2th216],76.3,30.1,51.1,46.2,46.4
GCGGGCCAGACGGCCGCCACUCCGGGCAGUGAUGUUGCGAAUCUUCUACUAGAGUGAUGUUCUACGAGGACCGGGUCGGAACGCG [Exclusion Tryptophan B Gf 14],458,384,569,502,289
GCGUCUGUCGGAAGGAGCGCACUAUGGAGUGAUGUUCCAUGACCGCACAGCUUGCGGUCAGUGCAGGUAGGUCGCCGAUAGCGUU [Diestera],161,157,154,190,144
GCUAUGGUAGGAAGGAGCGCGGACGAAAUUUAUCGAGUGAUGUUCGAAUAAUUAAAUAAAACGCAGGUAGGUCGCCUACUAUAGC [Arginine B K4 26],101,97.5,97.5,95.5,75.7
GCUAUGGUAGGAAGGAGCGCUACCUUGUUUUUACGAGUGAUGUUCGGAAGCAGGGUGUUAAAGCAGGUAGGUCGCCUACUAUAGC [Arginine B K4 21],192,178,167,205,176
GCUAUGGUAGGAAGGAGCGCUGCCUUGUUUUUACGAGUGAUGUUCGGAAGCAGGGUGUUAAAGCAGGUAGGUCGCCUACUAUAGC [Arginine B K4 23],191,121,160,172,155
GCUAUGGUAGGAAGGAGCGCUUAUUUAUUUUUAAGAGUGAUGUUCGAUAGUAGAUAUUUAAAGCAGGUAGGUCGCCUACUAUAGC [Arginine B K4 13],122,159,108,136,71.5
